Source: US20210155689A1 (SHANGHAI PHARMAEXPLORER, published 2021)

T1: human LAG-3 ECD (antigen protein of the affinity test) (human, UniProt P18627 23-450)
T1 sequence: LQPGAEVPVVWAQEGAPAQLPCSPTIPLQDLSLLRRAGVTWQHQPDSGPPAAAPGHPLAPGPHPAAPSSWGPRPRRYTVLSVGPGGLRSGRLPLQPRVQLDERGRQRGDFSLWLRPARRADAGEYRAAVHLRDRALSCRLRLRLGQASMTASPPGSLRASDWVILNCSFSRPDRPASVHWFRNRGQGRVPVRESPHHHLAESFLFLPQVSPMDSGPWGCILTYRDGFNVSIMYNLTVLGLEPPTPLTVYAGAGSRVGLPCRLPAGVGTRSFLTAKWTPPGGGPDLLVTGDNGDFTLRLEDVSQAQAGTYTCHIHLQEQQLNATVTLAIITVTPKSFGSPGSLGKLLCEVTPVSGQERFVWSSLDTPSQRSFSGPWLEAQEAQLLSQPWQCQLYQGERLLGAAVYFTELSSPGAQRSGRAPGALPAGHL

T2: human LAG-3 on cells (HEK293-hLAG-3 stable cell line) (human, UniProt P18627 23-525)
T2 sequence: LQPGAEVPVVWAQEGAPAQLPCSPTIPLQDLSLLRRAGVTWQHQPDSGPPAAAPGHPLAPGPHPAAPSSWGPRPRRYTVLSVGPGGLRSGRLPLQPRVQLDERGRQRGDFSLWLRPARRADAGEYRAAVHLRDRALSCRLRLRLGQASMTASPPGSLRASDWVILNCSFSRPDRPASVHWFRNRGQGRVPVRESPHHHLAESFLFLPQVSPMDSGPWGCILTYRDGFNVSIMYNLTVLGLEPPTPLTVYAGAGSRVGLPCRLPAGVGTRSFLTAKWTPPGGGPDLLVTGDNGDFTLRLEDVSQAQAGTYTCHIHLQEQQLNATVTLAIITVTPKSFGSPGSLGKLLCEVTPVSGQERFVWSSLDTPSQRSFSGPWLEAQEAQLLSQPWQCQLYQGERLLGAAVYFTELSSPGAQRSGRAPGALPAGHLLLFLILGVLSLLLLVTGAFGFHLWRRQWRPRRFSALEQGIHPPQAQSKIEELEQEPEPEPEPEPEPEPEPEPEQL


Columns and labels:
[1] = target: monkey LAG-3 on cells (HEK293-cLAG-3 stable cell line) (monkey); experiment: FACS, HEK293-cLAG-3, antibody 0.064 nM
monkey LAG-3 on cells (HEK293-cLAG-3 stable cell line) (monkey), sequence (P18627 other isoform, or with tags, fused parts or gaps limits assumed): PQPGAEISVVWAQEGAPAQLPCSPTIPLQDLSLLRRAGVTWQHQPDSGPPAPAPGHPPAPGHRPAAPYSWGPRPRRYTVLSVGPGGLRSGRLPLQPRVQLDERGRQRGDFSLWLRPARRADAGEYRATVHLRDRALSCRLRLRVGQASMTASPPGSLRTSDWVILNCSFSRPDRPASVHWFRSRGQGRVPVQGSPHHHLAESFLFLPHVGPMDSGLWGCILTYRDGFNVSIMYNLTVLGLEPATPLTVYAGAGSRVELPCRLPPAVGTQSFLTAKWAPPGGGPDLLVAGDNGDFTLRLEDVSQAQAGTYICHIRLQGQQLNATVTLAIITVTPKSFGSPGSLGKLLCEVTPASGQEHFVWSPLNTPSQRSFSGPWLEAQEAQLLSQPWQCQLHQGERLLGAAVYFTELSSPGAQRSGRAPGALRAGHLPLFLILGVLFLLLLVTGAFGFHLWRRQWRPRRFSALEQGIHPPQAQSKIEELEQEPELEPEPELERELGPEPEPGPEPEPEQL

[2] = target: LAG-3-hFc protein (human LAG-3 extracellular region with hFc tag) (human) (UniProt P18627); experiment: ELISA, inhibition of LSECtin-His binding to coated LAG-3-hFc, antibody 40.000 nM, replicate 2
[3] = target: LAG-3-hFc protein (human LAG-3 extracellular region with hFc tag) (human) (UniProt P18627); experiment: ELISA, inhibition of LSECtin-His binding to coated LAG-3-hFc, antibody 200.000 nM, replicate 1
[4] = target: LAG-3-hFc protein (human LAG-3 extracellular region with hFc tag) (human) (UniProt P18627); experiment: FACS, inhibition of LAG-3-hFc binding to MHC II on Raji cells, antibody 7.407 nM
[5] = target: LAG-3-hFc protein (human LAG-3 extracellular region with hFc tag) (human) (UniProt P18627); experiment: ELISA, inhibition of LSECtin-His binding to coated LAG-3-hFc, antibody 0.064 nM, replicate 1
[6] = target: human LAG-3 on cells (HEK293-hLAG-3 stable cell line) (human) (UniProt P18627); experiment: FACS, HEK293-hLAG-3, antibody 40 nM
[7] = target: LAG-3-hFc protein (human LAG-3 extracellular region with hFc tag) (human) (UniProt P18627); experiment: ELISA, inhibition of LSECtin-His binding to coated LAG-3-hFc, antibody 1.600 nM, replicate 1
[8] = target: LAG-3-hFc protein (human LAG-3 extracellular region with hFc tag) (human) (UniProt P18627); experiment: FACS, inhibition of LAG-3-hFc binding to MHC II on Raji cells, antibody 22.222 nM
[9] = target: human LAG-3 on cells (HEK293-hLAG-3 stable cell line) (human) (UniProt P18627); experiment: FACS, HEK293-hLAG-3, antibody 0.320 nM
[10] = target: LAG-3-hFc protein (human LAG-3 extracellular region with hFc tag) (human) (UniProt P18627); experiment: ELISA, inhibition of LSECtin-His binding to coated LAG-3-hFc, antibody 0.000 nM, replicate 1
[11] = target: T1, human LAG-3 ECD (antigen protein of the …); experiment: SPR, CM5 chip, antibody captured by anti-human Fc IgG, antigen in flow, 1:1 fit
Protocol: First, anti-human Fc IgG was immobilized on the surface of the CM5 chip to 6000-10000 RU by amino coupling method, with FC1 as the reference channel. The coupling process was as follows: a freshly prepared 1:1 mixture of 50 mM NHS and 200 mM EDC was activated for 7 minutes, then injected with 10-50 ug/ml anti-human Fc IgG diluted in 10 mM sodium acetate ph5.0 buffer. The remaining activated sites were blocked with 1M ethanolamine. Then, HBS-EP+ buffer was used to dilute the antibody to be tested to 5 ug/ml (adjustable according to the capture level) and the antibodies were captured on the chip at a flow rate of 10 ul/min to obtain a response value of about 100˜300 RU. Then the antigen protein was diluted to 100 nM (the highest concentration was tentatively 100 nM), and flew through the chip surface at a flow rate of 30 ul/min. If enough signal value was obtained, the antigen-protein was diluted by several concentration gradients, and flew through the chip surface respectively. At the end of each cycle, the chip surface was regenerated with 10 mM Glycine at pH 1.5. The kinetic rate constant needed to be subtracted from the blank control, and the data was fitted with the global fit analysis method 1:1 combination model. The dissociation equilibrium rate constant (KD) was calculated according to the following formula: KD=kd/ka.

[12] = target: T2, human LAG-3 on cells (HEK293-hLAG-3 …); experiment: FACS, HEK293-hLAG-3, antibody 40 nM
Description: (§1) A. The binding of antibodies to LAG-3 expressing cells was detected by Flow cytometry (FACS), wherein the method was according to that of Example 5.

[13] = target: T2, human LAG-3 on cells (HEK293-hLAG-3 …); experiment: FACS, HEK293-hLAG-3, antibody 8 nM
Description: as §1

[14] = target: T2, human LAG-3 on cells (HEK293-hLAG-3 …); experiment: FACS, HEK293-hLAG-3, antibody 1.6 nM

| Molecule | Mean fluorescence intensity [1] | Inhibition rate (%) [2] [%] | Inhibition rate (%) [3] [%] | Inhibition rate (%) [4] [%] | Inhibition rate (%) [5] [%] | Mean fluorescence intensity [6] | Inhibition rate (%) [7] [%] | Inhibition rate (%) [8] [%] | Mean fluorescence intensity [9] | Inhibition rate (%) [10] [%] | Kd [11] [nM] | koff [11] [s⁻¹] | kon [11] [M⁻¹ s⁻¹] | Mean fluorescence intensity [12] | Mean fluorescence intensity [13] | Mean fluorescence intensity [14] |
| --- | --- | --- | --- | --- | --- | --- | --- | --- | --- | --- | --- | --- | --- | --- | --- | --- |
| hIgG control (antibody) | 3.04 | -3.5 | 2.6 | 8.8 | -26.4 | 4 | -21.6 | 19.7 | 3.1 | 3.1 | – | – | – | – | – | – |
| 405B8H3 mouse-human chimeric antibody (antibody, V domains shown, also called mAb103-405B8H3) VH: QVQLQQSGAELVRPGASVTLSCKASGYTFTDYEMHWVKQTPVHGLEWIGATDPETGNSAYNQKFKGKAIMTADKSSSTAYMELRSLTSEDSAVYYCISTGWNDWGQGTSLTVSS VL: DIKMTQSPSSMYASLGERVTITCKASQDINSYLSWFQQKPGKSPKTLIYRADRLLDGVPSRFSGSGSGQDYSLTISSLEYGDMGIYYCLQYDEFPYTFGGGTKLEIK | – | – | – | – | – | – | – | – | – | – | 2.58 | 0.000165 | 64000 | 266 | 226 | – |
| 556F6B8 mouse-human chimeric antibody (antibody, V domains shown, also called mAb123-556F6B8; 556F8B8) VH: RVQLKQSGPGLVQPSQSLSITCTVSGFSLIKYGVHWVRQSPGEGLEWLGVIWRGGITDYNAAFMSRLSITKDNSKSQVFFKMNSLQADDTAIYYCAKWDGPLAMDYWGQGTSVTVSS VL: DIVMTQSHKFLSTSVGDRVSITCKASQDVGTTVAWYQQKPGQSPKLLIYWASTRHTGVPDRFTGSGSGTDFTLTISNVQSEDLADYFCQQYSSYPYTFGGGTKLEIK | – | – | – | – | – | – | – | – | – | – | 3.39 | 0.000455 | 134000 | – | – | 67 |
